Measurements published in patent US20230398116A1, “Agent for reversing resistance to anticancer drugs” (Y'S AC CO., LTD., priority 2020, published 2023).

Legend:
E0771 cells = assay: MTT assay / cell proliferation (confluence) assay, E0771; type: cell-based, mouse; conditions: E0771, erlotinib 30 μM or 50 μM, 48 hours, MTT, FIG. 10
Protocol: (§1) Human and mouse breast cancer cells (1×10^4) were cultured in 10% FCS containing RPMI1640 medium on a 96-well flat bottom plate (Corning, Tewksbury, MA) at 37° C. for 24 hours, and then stimulated with IL-26 for 48 hours in the presence or absence of EGFR-TKI (gefitinib or erlotinib) at various concentrations, a signal inhibitor, and a neutralizing antibody. HUVECs were seeded in a 96-well flat bottom plate at 5×10^3 cells/well in a 2% FBS-containing EGM medium in which growth factors were reduced by half, and cultured at 37° C. for 12 hours. Thereafter, the medium was aspirated, and a recombinant human IL-26 dimer was adjusted to a final concentration of 10 ng/mL in a 2% FBS-containing EGM medium containing no growth factors, and added to the cells. The stimulation was started in the presence or absence of control human IgG and anti-human IL-26 antibodies, and the cells were cultured for 48 hours. Thereafter, a concentration of 20 μl or 1/10 of a 5 mg/ml MTT solution (Tetrazolium monosodium salt, WST-8) was added to each well, and the plate was allowed to stand for 1 hour. The absorbance at 450 nm/595 nm was measured using Microplate Reader (Bio-Rad, Hercules, CA) and data was analyzed with Microplate Manager 6 software (Bio-Rad).
(§2) Human and mouse breast cancer cells (1×10^4) were cultured in RPMI1640 medium containing 10% FCS for 24 hours at 37° C. on a 96-well flat bottom plate (Corning), and then stimulated with IL-26 (30 ng/ml) in the presence or absence of various concentrations of gefitinib and a neutralizing antibody. Cell proliferation was measured as cell confluence using IncuCyte ZOOM (Essen Bioscience, Ann Arbor, MI).

HCC70 cells = assay: MTT assay / cell proliferation (confluence) assay, HCC70; type: cell-based, human; conditions: HCC70, erlotinib 30 μM or 50 μM, 48 hours, MTT, FIG. 10
Protocol: as §1, §2

MDA-MB468 cells = assay: MTT assay / cell proliferation (confluence) assay, MDA-MB468; type: cell-based, human; conditions: MDA-MB-468, erlotinib 30 μM or 50 μM, 48 hours, MTT, FIG. 10
Protocol: as §1, §2

[1] = target: T1, recombinant human IL-26/AK155 monomer, Cat #1375-IL/CF, R&D Systems (human, UniProt Q9NPH9 22-171); assay: ELISA, human IL-26 monomer coated at 0.5 µg/ml, antibody diluted 2-fold from 5 µg/ml, HRP anti-human kappa detection
T1 construct: also called recombinant human IL-26 monomer
T1 sequence (looked up): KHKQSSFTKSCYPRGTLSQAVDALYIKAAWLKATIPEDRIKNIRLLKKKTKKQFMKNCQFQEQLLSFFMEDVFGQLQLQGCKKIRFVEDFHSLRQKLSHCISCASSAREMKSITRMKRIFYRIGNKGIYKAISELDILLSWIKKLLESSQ
Protocol: (§3) The antigen binding of purified Ch69-10-IgG1, Hu69-10A-IgG1, and Hu69-10B-IgG1 was analyzed by ELISA. ELISA plates were coated overnight at 4° C. with the addition of 0.5 μg/ml human IL-26 (recombinant human IL-26/AK155 monomer, Cat #1375-IL/CF, R&D Systems, Minneapolis, MN) at 100 μl/well in 0.2 M sodium carbonate buffer (pH 9.4). Wells were washed with the wash buffer and blocked with the ELISA buffer. Subsequently, 100 μl/well of test antibody (mouse 69-10, Ch69-10-IgG1, Hu69-10A-IgG1, or Hu69-10B-IgG1) serially diluted 2-fold in RPMI medium starting at 5 μg/ml was added to measure a binding with IL-26. After incubation at room temperature for 1 hour and washing the plates with a wash buffer, a 1/2,000-diluted HRP-conjugated goat anti-human kappa chain polyclonal antibody (Bethyl Laboratories) (for Ch69-10-IgG1, Hu69-10A-IgG1 and Hu69-10B-IgG1) or a 1/2,000-diluted HRP-labeled goat anti-mouse kappa chain polyclonal antibody (Bethyl Laboratories) (for mouse 69-10) in ELISA buffer was added at 100 μl/well to detect bound antibodies. After incubation at room temperature for 30 min and washing with the wash buffer, 100 μl/well of ABTS substrate (Sigma Aldrich) was added to start color development and 100 μl/well of 2% oxalic acid was added to stop the color development. The absorbance was measured at 405 nm.

[2] = system: phosphorylation of AKT, JNK and EphA3 in HCC70 cells; assay: Western blotting of phosphorylation in HCC70 cells; type: cell-based, human; conditions: gefitinib 40 μM
Protocol: To analyze the phosphorylation of AKT, ERK, p38, JNK, STAT3, and EphA3, E0771 cells and HCC70 cells in 100 mm dishes were stimulated with IL-26 ([…]) and an anti-EphA3 polyclonal antibody (pAb) (10 μg/ml) for a specified period of time. After stimulation, the cells were lysed with a 2% protease inhibitor mixture (Sigma-Aldrich) and/or RIPA buffer added with 1×PhosSTOP (Roche Diagnostics, Tokyo, Japan), and a lysate was separated in a reduced state by SDS-PAGE (15 μg/lane). Immunoblots were performed using an anti-phosphorylated AKT antibody, an anti-phosphorylated ERK antibody, an anti-phosphorylated p38 antibody, an anti-phosphorylated JNK antibody, an anti-phosphorylated STAT3 antibody, and an anti-phosphorylated EphA3 antibody that recognize both human and mouse antigens. For reprobing, the membrane was immersed in a stripping buffer. After the stripping procedure, the membranes were re-probed with anti-pan-AKT, anti-pan-ERK, anti-pan-p38, anti-pan-JNK, anti-pan-STAT3, and anti-pan-EphA3 antibodies recognizing both human and mouse antigens. Images were taken using a C-Digit Blot scanner (MS Techno Systems, Inc., Japan).

IL-26 = target: T2, IL-26 (Homo sapiens, UniProt Q9NPH9); assay: ELISA of antigen binding to human IL-26; set-up: purchased R&D Systems 1375-IL/CF; conditions: plates coated with 0.5 μg/ml human IL-26 monomer; calculated using GraphPadPrism
T2 sequence (Q9NPH9 22-171): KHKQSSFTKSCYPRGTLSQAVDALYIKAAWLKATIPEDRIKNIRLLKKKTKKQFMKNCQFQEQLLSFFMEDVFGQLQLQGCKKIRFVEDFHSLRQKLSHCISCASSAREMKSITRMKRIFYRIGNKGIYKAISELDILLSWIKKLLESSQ
Protocol: as §3

EphA3/IL-26 interaction = target: T3, EphA3/IL-26 interaction (Homo sapiens, UniProt Q9NPH9); assay: Immunofluorescence of rhIL-26-Alexa 488 and cell surface EphA3 on E0771 cells; type: cell-based, mouse; conditions: E0771, antibodies 10 μg/ml, FIGS. 19 and 20
T3 construct: purchased R&D Systems; host or cells: IL-26 was purchased; EphA3 is endogenous on E0771 cells
T3 sequence (Q9NPH9 22-171): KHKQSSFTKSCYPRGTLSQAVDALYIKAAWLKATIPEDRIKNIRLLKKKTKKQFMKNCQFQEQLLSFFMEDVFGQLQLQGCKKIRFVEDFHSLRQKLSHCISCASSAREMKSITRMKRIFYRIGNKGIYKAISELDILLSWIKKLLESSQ
Protocol: E0771 and HCC70 cells (1×10^5) were cultured for 24 hours in RPMI1640 medium with 10% FCS on Lab-Tek chamber slides (Thermo Fisher Scientific). The cultured cells were stimulated with Alexa Fluor 488 labeled IL-26 (30 ng/ml) in the presence or absence of recombinant human and mouse EphA3-Ig for 1 hour. HCC70 cells were stimulated with IL-26 (30 ng/ml) in the presence or absence of gefitinib (40 μM), a signal inhibitor, and a neutralizing antibody for 24 hours. Subcutaneous tumor samples obtained from mice were fixed in 4% paraformaldehyde (Thermo Fisher Scientific) and embedded in OCT compound (Tissue-Tek (registered trademark), Sakura Finetek, Japan). Cells and slides were immunostained with each antibody and observed using a Zeiss inverted microscope and Axiovision 2.0 program (Carl Zeiss, Germany). The fluorescence intensity was quantified with Image-J software (NIH). The images were captured using a 100×400× objective.

[3] = HCC70, Ephrin A5 200 ng/ml, FIG. 26 left

C#Cc1cccc(Nc2ncnc3cc(OCCOC)c(OCCOC)cc23)c1 [erlotinib, Erlotinib, reference compound]
cell proliferation under erlotinib (E0771 cells): inhibitory effect of erlotinib on cell proliferation | cell proliferation under erlotinib (HCC70 cells): inhibitory effect of erlotinib on cell proliferation | cell proliferation under erlotinib (MDA-MB468 cells): inhibitory effect of erlotinib on cell proliferation

B1: chimeric 69-10 IgG1/kappa antibody (Ch69-10-IgG1) (antibody, V domains shown)
VH: QVTLKESGPGILKPSQTLSLTCSFSGFSLSTSGMGVGWIRQPSGKGLEWLAHIWWDDDKYYNPSLKSQLTISKDTSRNQVFLKITSVDTADTATYYCVRGGITATHYYAMDYWGQGTSVTVSS
VL: DIQMTQSPASQSASLGESVTISCLASQTIGTWLSWYQQKPGKSPQLLIYAATSLADGVPSRFSGSGSGTKFSFKISSLQAEDFVSYYCQQLYSSPWTFGGGTKLEIK
notes: also called clone 1H8
EC50 [1]: 0.299 µg/mL

B2: Hu69-10A-IgG1/kappa antibody (Hu69-10A-IgG1) (antibody, V domains shown)
VH: QVTLKESGPALVKPTQTLTLTCTFSGFSLSTSGMGVGWIRQPPGKALEWLAHIWWDDDKYYNPSLKSQLTISKDTSKNQVVLTMTNMDPVDTATYYCVRGGITATHYYAMDYWGQGTTVTVSS
VL: DIQMTQSPSSLSASVGDRVTITCLASQTIGTWLSWYQQKPGKAPKLLIYAATSLADGVPSRFSGSGSGTKFTFTISSLQPEDIATYYCQQLYSSPWTFGGGTKVEIK
notes: also called h69-10A; humanized anti-IL-26 antibody Hu69-10A
EC50 [1]: 0.304 µg/mL

B3: Hu69-10B IgG1/kappa antibody (Hu69-10B-IgG1) (antibody, V domains shown)
VH: QVTLKESGPALVKPTQTLTLTCTFSGFSLSTSGMGVGWIRQPPGKALEWLAHIWWDDDKYYNPSLKSQLTISKDTSKNQVVLTMTNMDPVDTATYYCVRGGITATHYYAMDYWGQGTTVTVSS
VL: DIQMTQSPSSLSASVGDRVTITCLASQTIGTWLSWYQQKPGKAPKLLIYAATSLADGVPSRFSGSGSGTDFTFTISSLQPEDIATYYCQQLYSSPWTFGGGTKVEIK
notes: also called h69-10B; humanized anti-IL-26 antibody Hu69-10B
EC50 [1]: 0.396 µg/mL

B4: Ephrin A5: known ligand of EphA3 (protein, UniProt P52803 21-203, looked up)
Ephrin-A5: QDPGSKAVADRYAVYWNSSNPRFQRGDYHIDVCINDYLDVFCPHYEDSVPEDKTERYVLYMVNFDGYSACDHTSKGFKRWECNRPHSPNGPLKFSEKFQLFTPFSLGFEFRPGREYFYISSAIPDNGRRSCLKLKVFVRPTNSCMKTIGVHDRVFDVNDKVENSLEPADDTVHESAEPSRGEN
phosphorylation of AKT [2, 3]: slightly enhanced | phosphorylation of JNK and EphA3 [2, 3]: little effect | dephosphorylation of EphA3, activation of AKT and JNK phosphorylation ([2]; HCC70, IL-26 30 ng/ml or Ephrin A5 200 ng/ml, FIG. 26): such changes were not observed

B5: Ch69-10-IgG1: chimeric 69-10 IgG1/kappa antibody with mouse 69-10 VH and VL and human constant regions (antibody, V domains shown)
VH: QVTLKESGPGILKPSQTLSLTCSFSGFSLSTSGMGVGWIRQPSGKGLEWLAHIWWDDDKYYNPSLKSQLTISKDTSRNQVFLKITSVDTADTATYYCVRGGITATHYYAMDYWGQGTSVTVSS
VL: DIQMTQSPASQSASLGESVTISCLASQTIGTWLSWYQQKPGKSPQLLIYAATSLADGVPSRFSGSGSGTKFSFKISSLQAEDFVSYYCQQLYSSPWTFGGGTKLEIK
EC50 values (binding to human IL-26, ELISA) (IL-26): 0.299 µg/mL

B6: mouse soluble EphA3: recombinant mouse EphA3 Fc chimeric protein purchased from R&D Systems (protein)
chain: ELSPQPSNEVNLLDSKTIQGELGWISYPSHGWEEISGVDEHYTPIRTYQVCNVMDHSQNNWLRTNWVPRNSAQKIYVELKFTLRDCNSIPLVLGTCKETFNLYYMESDDHGVKFREHQFTKIDTIAADESFTQMDLGDRILKLNTEIREVGPVNKKGFYLAFQDVGACVALVSVRVYFKKCPFTVKNLAMFPDTVPMDSQSLVEVRGSCVNNSKEEDPPRMYCSTEGEWLVPIGKCTCNAGYEERGFICQACRPGFYKASDGAAKCAKCPPHSSTQEDGSMNCRCENNYFRAEKDPPSMACARPPSAPRNVISNINETSVILDWSWPLDTGGRKDITFNIICKKCGWNVRQCEPCSPNVRFLPRQLGLTNTTVTVTDLLAHTNYTFEIDAVNGVSELSSPPRQYAAVSITTNQAAPSPVMTIKKDRTSRNSISLSWQEPEHPNGIILDYEVKYYQKQEQETSYTILRARGTNVTISSLKPDTTYVFQIRARTAAGYGTNSRKFEFETSPDSFSISGENSH
modifications: left off: a dimerising Fc or GST
notes: recombinant mouse EphA3 Fc chimeric protein purchased from R&D Systems
inhibition of colocalization of IL-26 with EphA3 (EphA3/IL-26 interaction) (EphA3/IL-26 interaction): inhibited EphA3/IL-26 interaction
